Source: article PMC8458385, “Molecular basis for PICS-mediated piRNA biogenesis and cell division” (Nature Communications, 2021)

B2: TOFU-6^RRM (residues 2-92) (domain or fragment, C. elegans, UniProt Q09293 2-92, looked up)
chain: ASSSTAYYLKDAGFHIRNIPKAWNDWNLFHVFQNFGKVSYCRVVGQSNDGQVQLGFVNMMSVADADEVRKNLNDGNLIGENFTLKVTDHKN
notes: TOFU-6, C. elegans, RRM domain, residues 2-92; Gene codon-optimised and synthesised; for the crystal co-expressed with PICS-1^RRM from a modified pETDuet-1; also called TOFU-6 RRM domain; TOFU-6^C; source: E. coli BL21(DE3), purified (Ni-NTA, TEV, second Ni-NTA; complex with PICS-1^RRM also Superdex 75); not shown: His tag (from the Ni-NTA purification), N-terminal, cleaved
B4: ERH-2 (natural protein, C. elegans, UniProt Q20057 1-113, looked up)
chain: MSTSSHTVLLIQTSPRLDSRTWGDYESVTDALDALCKMFEDFLSKKSAAPVTYDVSQVYEFLDKLSDVSMMIFNRETGQYIGRTRAWIKQQVYEMMRGRCQHPEGGEKVIVGY
notes: ERH-2, C. elegans, amplified from a cDNA library; also called ERH-2 wild type; source: E. coli BL21(DE3), purified (Ni-NTA, TEV cleavage, second Ni-NTA); not shown: His tag (inferred from the Ni-NTA purification), N-terminal, cleaved

Columns and labels:
Conditions in all cases: both partners purified
[1] = biological target: T1, PICS-1^5-282 (almost full-length PICS-1) (C. elegans, UniProt O76616 5-282); assay: SEC; ERH-2 and TOFU-6^RRM mixed with PICS-1 5-282, PICS-1 5-200 or PICS-1 ΔEBM; Superose 6 Increase 10/300 GL; 20 mM Tris pH 8.5, 200 mM NaCl; peaks analysed by SDS-PAGE
T1 construct: Cloned into pET28-MHL; Two copies in the 2:2:2 complex with ERH-2 and TOFU-6^RRM; source: E. coli BL21(DE3), purified (Ni-NTA, TEV cleavage, second Ni-NTA); not shown: His tag (inferred from the Ni-NTA purification), N-terminal, cleaved
T1 sequence (looked up): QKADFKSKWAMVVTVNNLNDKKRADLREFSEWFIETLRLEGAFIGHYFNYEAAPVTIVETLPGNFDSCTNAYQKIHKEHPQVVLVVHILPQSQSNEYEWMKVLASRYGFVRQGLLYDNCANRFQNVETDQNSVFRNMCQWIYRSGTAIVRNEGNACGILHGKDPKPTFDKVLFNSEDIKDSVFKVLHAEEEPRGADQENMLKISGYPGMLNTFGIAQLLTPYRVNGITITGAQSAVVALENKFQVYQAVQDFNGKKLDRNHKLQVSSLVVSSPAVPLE

[2] = biological target: T2, PICS-1^5-282 (C. elegans, UniProt O76616 5-282); assay: SEC; ERH-2 and TOFU-6^RRM mixed with PICS-1 constructs, Superose 6 Increase 10/300 GL, 20 mM Tris hydrochloride pH 8.5, 200 mM NaCl; fractions on SDS-PAGE
T2 construct: Cloned into pET28-MHL; also called almost full-length PICS-1; source: E. coli BL21(DE3), purified (Ni-NTA, TEV, second Ni-NTA); not shown: His tag (from the Ni-NTA purification), N-terminal, cleaved
T2 sequence (looked up): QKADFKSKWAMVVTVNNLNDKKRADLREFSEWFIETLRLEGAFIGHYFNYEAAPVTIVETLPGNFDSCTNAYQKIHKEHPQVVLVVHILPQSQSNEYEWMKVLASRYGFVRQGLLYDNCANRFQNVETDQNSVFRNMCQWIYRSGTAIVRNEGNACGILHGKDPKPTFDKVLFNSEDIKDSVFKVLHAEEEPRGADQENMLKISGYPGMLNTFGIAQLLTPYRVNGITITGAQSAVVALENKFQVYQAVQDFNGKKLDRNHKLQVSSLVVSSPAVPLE

[3] = biological target: B2; assay: ITC; MicroCal ITC200, 25 °C, 20 mM Tris pH 8.5, 200 mM NaCl or 20 mM MES pH 6.5, 200 mM NaCl; 1–2 mM in the syringe into 30–50 μM in the cell; one-site binding model
[4] = biological target: T3, PICS-1^5-200 (PICS-1^ΔRRM) (C. elegans, UniProt O76616 5-200); assay: SEC; ERH-2 and TOFU-6^RRM mixed with PICS-1 5-282, PICS-1 5-200 or PICS-1 ΔEBM; Superose 6 Increase 10/300 GL; 20 mM Tris pH 8.5, 200 mM NaCl; peaks analysed by SDS-PAGE
T3 construct: PICS-1 (PID-3), C. elegans, residues 5-200 (lacks the RRM domain); Cloned into pET28-MHL; source: E. coli BL21(DE3), purified (Ni-NTA, TEV cleavage, second Ni-NTA); not shown: His tag (inferred from the Ni-NTA purification), N-terminal, cleaved
T3 sequence (looked up): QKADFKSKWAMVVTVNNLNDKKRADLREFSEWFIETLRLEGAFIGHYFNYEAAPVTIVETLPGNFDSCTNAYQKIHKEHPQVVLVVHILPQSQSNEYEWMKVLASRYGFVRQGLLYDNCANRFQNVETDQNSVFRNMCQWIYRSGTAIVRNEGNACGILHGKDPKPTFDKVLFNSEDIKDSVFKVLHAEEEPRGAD

[5] = biological target: T4, ERH-2 (C. elegans, UniProt Q20057 1-113); assay: ITC; MicroCal ITC200, 25 °C, 20 mM Tris pH 8.5, 200 mM NaCl or 20 mM MES pH 6.5, 200 mM NaCl; 1–2 mM in the syringe into 30–50 μM in the cell; one-site binding model
T4 construct: ERH-2, C. elegans, amplified from a cDNA library; also called wild type ERH-2; source: E. coli BL21(DE3), purified (Ni-NTA, TEV, second Ni-NTA); not shown: His tag (from the Ni-NTA purification), N-terminal, cleaved
T4 sequence (looked up): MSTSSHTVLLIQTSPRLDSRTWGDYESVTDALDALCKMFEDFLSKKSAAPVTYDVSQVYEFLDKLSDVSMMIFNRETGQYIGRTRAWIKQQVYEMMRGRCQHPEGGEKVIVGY

[6] = biological target: T5, ERH-2^1-103-(Gly-Ser-Ser)7-PICS-1^180-200 fusion protein (C. elegans, UniProt Q20057 1-103; O76616 180-200); assay: ITC; MicroCal ITC200, 25 °C; 20 mM Tris pH 8.5, 200 mM NaCl or 20 mM MES pH 6.5, 200 mM NaCl; 1-2 mM protein or peptide in the syringe titrated into 30-50 μM protein in the cell; one-site model; Kd mean ± SD of a minimum of two experiments
T5 construct: ERH-2, C. elegans, residues 1-103; 21-aa linker (Gly-Ser-Ser)7; PICS-1 (PID-3), C. elegans, EBM, residues 180-200; the methods describe only the 1-103 fusion; also called ERH-2-(GSS)7-PICS-1180-200; ERH-2-(GSS)7-PICS-1; source: E. coli BL21(DE3), purified (Ni-NTA, TEV cleavage, second Ni-NTA, Superdex 75); not shown: His tag (inferred from the Ni-NTA purification), N-terminal, cleaved
T5 chain: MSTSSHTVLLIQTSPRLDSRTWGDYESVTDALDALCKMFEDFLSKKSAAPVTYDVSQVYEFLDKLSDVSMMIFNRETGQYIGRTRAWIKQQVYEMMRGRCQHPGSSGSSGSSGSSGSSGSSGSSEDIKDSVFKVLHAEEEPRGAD

[7] = biological target: B4; assay: as above

B1: TOFU-6 RRM domain (TOFU-6^RRM, residues 2-92) (domain or fragment, C. elegans, UniProt Q09293 2-92, looked up)
chain: ASSSTAYYLKDAGFHIRNIPKAWNDWNLFHVFQNFGKVSYCRVVGQSNDGQVQLGFVNMMSVADADEVRKNLNDGNLIGENFTLKVTDHKN
notes: TOFU-6, C. elegans, RRM domain, residues 2-92; source: E. coli BL21(DE3), purified (Ni-NTA, TEV cleavage, second Ni-NTA); not shown: His tag (inferred from the Ni-NTA purification), N-terminal, cleaved
Question: Does B1 bind [1]?
Answer: Result: binds

Question: Does B2 bind [2]?
Answer: Result: binds

B3: PICS-1^RRM F217E (domain or fragment, C. elegans, UniProt O76616 201-282, looked up)
chain: QENMLKISGYPGMLNTEGIAQLLTPYRVNGITITGAQSAVVALENKFQVYQAVQDFNGKKLDRNHKLQVSSLVVSSPAVPLE
notes: Cloned into pET28-MHL; the homodimer is disrupted by the mutation; source: E. coli BL21(DE3), purified (Ni-NTA, TEV, second Ni-NTA, Superdex 75); not shown: His tag (from the Ni-NTA purification), N-terminal, cleaved
Question: B3 was tested. Which Kd [3] did it give?
Answer: Its Kd is 0.57 µM.

Question: Does B4 bind [1]?
Answer: Result: binds

Question: Does B4 bind [4]?
Answer: Result: binds

B5: SUMO-fused TOST-1^34-54 (domain or fragment, C. elegans, UniProt Q18490 34-54, looked up)
chain: NKRITLNERFGVLEKGYTIQA
notes: TOST-1, C. elegans, residues 34-54; Cloned into pET28-SUMO; also called TOST-1 fragment; source: E. coli BL21(DE3), purified (Ni-NTA); not shown: SUMO, N-terminal, kept
Question: Which Kd [5] does the source give for B5 here?
Answer: Its Kd is 3.2 µM.

B6: SUMO-TOST-1^34-54 (domain or fragment, C. elegans, UniProt Q18490 34-54, looked up)
chain: NKRITLNERFGVLEKGYTIQA
notes: TOST-1, C. elegans, residues 34-54; Fused to the C-terminus of SUMO (pET28-SUMO); the Kds are for the SUMO fusion; also called TOST-1 fragment; source: E. coli BL21(DE3), purified (Ni-NTA); not shown: SUMO, N-terminal, kept
Question: For B6, which Kd [6] is on record?
Answer: The Kd was 4.9 µM.

Question: And the “stoichiometry N” value [6]?
Answer: Its value is 0.9.

Question: And the “stoichiometry N” value [7]?
Answer: Its value is 0.9.
